Series [1] addresses Cysteine synthase A (CysK) from Limosilactobacillus reuteri LR1 with His-tag on the N-terminus (Limosilactobacillus reuteri LR1). As to the kind of experiment: SEC; analytical gel filtration, HiLoad 16/600 Superdex 200 pg, 1 mg of sample, calibrated with Gel Filtration Calibration Kit HMW; monomer to dimer. Background: SEC sorts molecules by how far they enter the pores of the column.

Series [2] concerns CC(=O)OC[C@H](N)C(=O)O. As to the kind of experiment: purified protein. The note with it: saturating sulfide, 5 µM PLP, 10 mM HEPES pH 7.5.
Excerpt: HILIC HPLC determination of cysteine, nonlinear regression on LreCysK (cysteine synthase A from Limosilactobacillus reuteri LR1, His-tag at N-terminus)
Series [3] concerns the target T1, LreCysK (cysteine synthase A from Limosilactobacillus reuteri LR1, His-tag at N-terminus) (Limosilactobacillus reuteri, UniProt A0ABF7PP24).
T1 construct: gene cysK
T1 sequence (A0ABF7PP24 2-307): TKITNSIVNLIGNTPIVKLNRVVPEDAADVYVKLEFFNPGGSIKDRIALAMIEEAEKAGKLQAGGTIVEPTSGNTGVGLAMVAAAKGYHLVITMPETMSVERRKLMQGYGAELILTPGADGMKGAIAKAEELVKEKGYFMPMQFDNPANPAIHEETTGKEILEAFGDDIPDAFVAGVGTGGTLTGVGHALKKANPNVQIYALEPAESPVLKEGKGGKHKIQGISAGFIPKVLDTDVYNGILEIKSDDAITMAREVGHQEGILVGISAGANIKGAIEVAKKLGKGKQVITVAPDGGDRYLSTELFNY
As to the kind of experiment: differential scanning calorimetry, with versus without added PLP. As to conditions: 1.0 mM PLP, 0.1 M Na-phosphate pH 7.0, 1 °C/min; two calorimetric domains, domain 1 given. Format: binding. The source says: differential scanning calorimetry, with versus without added PLP on LreCysK (cysteine synthase A from Limosilactobacillus reuteri LR1, His-tag at N-terminus)
A general note: In DSC, transitions show as peaks or steps in heat flow.

As usually defined, the stoichiometry N is the number of molecules, sites or subunits per partner or assembly. Usually Km stands for the substrate concentration at which the rate is half of its maximum. As a reminder, the kcat is the number of substrate molecules converted per active site and unit of time at saturation. By kcat/Km is commonly meant the second-order rate constant that governs catalysis at low substrate concentration.

The molecule “Cysteine synthase A (CysK) from Limosilactobacillus reuteri LR1 with His-tag on the N-terminus (enzyme)” returned a stoichiometry N in series [1] of 2.

With “LreCysK (cysteine synthase A from Limosilactobacillus reuteri LR1, His-tag at N-terminus) (Limosilactobacillus reuteri)”, in series [2], the Km is 3.8 ± 0.6 mM, the kcat turned out to be 681 ± 45 s⁻¹ and the kcat/Km amounted to 179000 M⁻¹ s⁻¹.

Consider `Cc1ncc(COP(=O)(O)O)c(C=O)c1O` [Pyridoxal-5 phosphate], for which the “Tm, °C” value in series [3] is 80.1 °C.
